Test results published in patent US20240066137A1, “NOVEL PROTEIN CONJUGATE, AND USE THEREOF FOR PREVENTING OR TREATING NONALCOHOLIC STEATOHEPATITIS, OBESITY AND DIABETES” (ONEGENE BIOTECHNOLOGY INC., priority 2020, published 2024).

What was measured:
Experiment in all cases: cell-based or functional assay
GLP-1 acceptor = GLP-1 acceptor (UniProt P43220)
GIP acceptor = GIP acceptor (UniProt P48546)
FGFR1/KLB acceptor = FGFR1/KLB acceptor (UniProt P11362)
IL-1RA acceptor = IL-1RA acceptor (UniProt P14778)
Sequence of IL-1RA acceptor (P14778 18-569 limits assumed): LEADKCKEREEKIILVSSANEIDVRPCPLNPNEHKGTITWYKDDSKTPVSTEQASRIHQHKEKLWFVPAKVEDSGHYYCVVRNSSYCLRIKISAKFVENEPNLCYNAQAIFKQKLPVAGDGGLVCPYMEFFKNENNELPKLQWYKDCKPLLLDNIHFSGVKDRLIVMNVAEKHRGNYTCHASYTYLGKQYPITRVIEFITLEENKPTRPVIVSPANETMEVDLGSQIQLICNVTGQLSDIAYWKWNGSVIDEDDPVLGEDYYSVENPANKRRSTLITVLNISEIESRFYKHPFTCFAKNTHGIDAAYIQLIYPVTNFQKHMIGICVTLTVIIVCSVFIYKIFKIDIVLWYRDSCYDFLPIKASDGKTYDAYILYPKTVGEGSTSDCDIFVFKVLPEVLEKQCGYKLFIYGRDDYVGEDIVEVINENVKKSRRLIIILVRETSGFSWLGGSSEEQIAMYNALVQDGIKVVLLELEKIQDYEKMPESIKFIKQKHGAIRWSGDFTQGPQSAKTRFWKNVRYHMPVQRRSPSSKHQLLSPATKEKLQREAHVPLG

Sequence of FGFR1/KLB acceptor (P11362 22-822 limits assumed, chain 1 of 2): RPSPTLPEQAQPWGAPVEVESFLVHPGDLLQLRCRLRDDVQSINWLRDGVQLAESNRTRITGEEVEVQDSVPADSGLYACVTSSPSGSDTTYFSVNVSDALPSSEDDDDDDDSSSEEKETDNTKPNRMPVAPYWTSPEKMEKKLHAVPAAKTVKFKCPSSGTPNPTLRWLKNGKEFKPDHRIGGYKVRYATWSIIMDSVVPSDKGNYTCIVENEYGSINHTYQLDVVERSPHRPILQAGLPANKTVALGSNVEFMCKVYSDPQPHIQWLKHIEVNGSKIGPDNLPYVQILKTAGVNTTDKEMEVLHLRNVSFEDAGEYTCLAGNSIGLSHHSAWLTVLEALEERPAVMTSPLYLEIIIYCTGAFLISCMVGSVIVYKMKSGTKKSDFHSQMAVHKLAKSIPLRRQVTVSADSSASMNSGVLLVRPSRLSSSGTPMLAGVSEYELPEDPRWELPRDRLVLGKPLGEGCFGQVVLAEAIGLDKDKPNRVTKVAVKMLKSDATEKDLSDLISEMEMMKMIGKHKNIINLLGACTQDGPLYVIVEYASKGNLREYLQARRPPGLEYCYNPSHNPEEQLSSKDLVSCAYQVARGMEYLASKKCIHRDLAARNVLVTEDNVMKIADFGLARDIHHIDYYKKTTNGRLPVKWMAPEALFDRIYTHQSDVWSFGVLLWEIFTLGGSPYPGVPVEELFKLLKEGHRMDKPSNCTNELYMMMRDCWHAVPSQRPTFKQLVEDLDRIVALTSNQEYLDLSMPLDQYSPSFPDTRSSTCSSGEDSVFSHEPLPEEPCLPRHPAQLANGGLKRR
Sequence of FGFR1/KLB acceptor (Q86Z14 whole entry, chain 2 of 2, further chain): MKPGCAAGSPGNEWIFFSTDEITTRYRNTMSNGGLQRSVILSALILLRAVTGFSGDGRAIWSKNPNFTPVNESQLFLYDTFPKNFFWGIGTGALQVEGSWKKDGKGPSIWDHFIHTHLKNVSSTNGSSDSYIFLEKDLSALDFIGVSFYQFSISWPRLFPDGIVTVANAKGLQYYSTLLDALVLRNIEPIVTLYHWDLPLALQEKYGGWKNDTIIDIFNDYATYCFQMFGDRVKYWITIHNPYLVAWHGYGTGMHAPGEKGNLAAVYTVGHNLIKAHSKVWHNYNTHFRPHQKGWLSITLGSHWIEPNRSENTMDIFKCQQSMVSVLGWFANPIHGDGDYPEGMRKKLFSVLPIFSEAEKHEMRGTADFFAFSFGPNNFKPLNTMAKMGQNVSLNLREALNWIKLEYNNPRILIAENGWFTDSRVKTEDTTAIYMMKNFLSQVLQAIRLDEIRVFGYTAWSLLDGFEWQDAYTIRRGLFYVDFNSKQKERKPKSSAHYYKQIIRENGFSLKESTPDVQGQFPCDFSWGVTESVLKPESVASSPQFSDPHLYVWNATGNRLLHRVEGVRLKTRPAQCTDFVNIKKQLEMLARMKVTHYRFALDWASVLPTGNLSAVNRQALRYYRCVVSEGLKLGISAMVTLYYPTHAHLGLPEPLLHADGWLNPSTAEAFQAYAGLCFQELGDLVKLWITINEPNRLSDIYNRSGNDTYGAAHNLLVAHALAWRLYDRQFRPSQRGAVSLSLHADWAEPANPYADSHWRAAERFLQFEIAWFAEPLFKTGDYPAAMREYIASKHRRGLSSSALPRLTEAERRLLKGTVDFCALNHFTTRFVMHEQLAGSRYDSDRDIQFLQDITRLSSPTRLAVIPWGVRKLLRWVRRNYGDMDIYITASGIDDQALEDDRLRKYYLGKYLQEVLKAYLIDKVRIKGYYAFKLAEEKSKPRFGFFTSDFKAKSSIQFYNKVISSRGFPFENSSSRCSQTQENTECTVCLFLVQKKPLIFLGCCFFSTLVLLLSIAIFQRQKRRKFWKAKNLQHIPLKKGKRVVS
Sequence of GIP acceptor (P48546 22-466 limits assumed): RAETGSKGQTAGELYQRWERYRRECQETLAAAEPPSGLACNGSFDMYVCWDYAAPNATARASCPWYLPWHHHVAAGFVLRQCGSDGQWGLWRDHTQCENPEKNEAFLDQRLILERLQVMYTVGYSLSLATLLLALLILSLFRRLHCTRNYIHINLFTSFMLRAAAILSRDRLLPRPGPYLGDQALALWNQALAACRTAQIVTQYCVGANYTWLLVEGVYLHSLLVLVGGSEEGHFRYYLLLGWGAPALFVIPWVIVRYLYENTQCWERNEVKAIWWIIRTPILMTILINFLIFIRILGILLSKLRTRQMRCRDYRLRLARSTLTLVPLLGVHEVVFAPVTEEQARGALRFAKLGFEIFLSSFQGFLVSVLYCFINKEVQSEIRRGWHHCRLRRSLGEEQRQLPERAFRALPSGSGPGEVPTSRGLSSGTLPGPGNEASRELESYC
Sequence of rhFGF21 (Native) (Q9NSA1 29-209 limits assumed): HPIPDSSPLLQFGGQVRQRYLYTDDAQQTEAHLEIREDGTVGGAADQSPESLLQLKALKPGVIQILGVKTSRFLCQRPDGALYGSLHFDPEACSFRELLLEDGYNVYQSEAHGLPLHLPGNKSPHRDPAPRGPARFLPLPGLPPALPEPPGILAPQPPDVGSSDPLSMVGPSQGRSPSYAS
Sequence of Dulaglutide (Fc fusion) (chain): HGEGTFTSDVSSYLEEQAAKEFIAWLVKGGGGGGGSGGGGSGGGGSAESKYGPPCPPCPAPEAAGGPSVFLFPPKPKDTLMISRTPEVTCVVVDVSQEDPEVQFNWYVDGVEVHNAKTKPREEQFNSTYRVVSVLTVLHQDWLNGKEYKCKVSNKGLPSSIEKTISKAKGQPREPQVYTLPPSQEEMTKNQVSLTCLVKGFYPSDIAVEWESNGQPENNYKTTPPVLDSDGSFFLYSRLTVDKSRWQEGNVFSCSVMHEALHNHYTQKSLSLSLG
Sequence of GLP-1 acceptor (P43220 24-463 limits assumed): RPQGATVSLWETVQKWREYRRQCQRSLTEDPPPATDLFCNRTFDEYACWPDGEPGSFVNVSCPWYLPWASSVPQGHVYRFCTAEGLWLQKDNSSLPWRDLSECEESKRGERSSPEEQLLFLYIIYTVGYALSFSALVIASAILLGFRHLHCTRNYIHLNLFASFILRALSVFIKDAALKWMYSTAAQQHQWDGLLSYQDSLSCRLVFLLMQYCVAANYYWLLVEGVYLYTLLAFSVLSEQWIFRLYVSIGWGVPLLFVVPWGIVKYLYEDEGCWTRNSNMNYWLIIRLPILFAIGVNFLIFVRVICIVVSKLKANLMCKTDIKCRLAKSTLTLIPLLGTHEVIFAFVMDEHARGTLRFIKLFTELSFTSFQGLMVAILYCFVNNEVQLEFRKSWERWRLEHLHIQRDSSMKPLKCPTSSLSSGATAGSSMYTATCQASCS

Question: Which results are given for Dulaglutide (Fc fusion)?
Answer: EC50, cAMP accumulation assay; Mean (GLP-1 acceptor): 0.00107 nM; EC50, cAMP accumulation assay; Stable cell line, n = 6 (GLP-1 acceptor): 0.00145 nM; EC50, cAMP accumulation assay; run 1 (GLP-1 acceptor): 0.00123 nM; EC50, cAMP accumulation assay; run 2 (GLP-1 acceptor): 0.0009 nM

Question: For “GIP(1-39) (from UniProt P09681 52-90) (peptide)”, which EC50, cAMP accumulation assay; Mean (GIP acceptor) is on record?
Answer: 0.0148 nM

Question: And the EC50, cAMP accumulation assay; run 1 (GIP acceptor)?
Answer: 0.0154 nM

Question: What about the EC50, cAMP accumulation assay; run 2 (GIP acceptor) of the same substance?
Answer: 0.0141 nM

Question: For “rhFGF21 (Native) (from UniProt Q9NSA1 29-209) (ligand)”, which EC50, FGFR1/KLB functional assay; Mean (FGFR1/KLB acceptor) is on record?
Answer: 0.82 nM

Question: And the EC50, FGFR1/KLB functional assay; n = 4 (FGFR1/KLB acceptor)?
Answer: 1.17 nM

Question: What about the EC50, FGFR1/KLB functional assay; run 1 (FGFR1/KLB acceptor) of the same substance?
Answer: 0.75 nM

Question: What about the EC50, FGFR1/KLB functional assay; run 2 (FGFR1/KLB acceptor) of the same substance?
Answer: 0.88 nM

Question: How did the IC50, NF-κB reporter gene luciferase assay with IL-1β; Mean (IL-1RA acceptor) turn out when “rhIL-1RA (Native) (from UniProt P18510 26-177) (ligand)” was run?
Answer: 0.0475 nM

Question: And the IC50, NF-κB reporter gene luciferase assay with IL-1β; n = 2 (IL-1RA acceptor)?
Answer: 0.0686 nM

Question: What about the IC50, NF-κB reporter gene luciferase assay with IL-1β; run 1 (IL-1RA acceptor) of the same substance?
Answer: 0.0399 nM

Question: What about the IC50, NF-κB reporter gene luciferase assay with IL-1β; run 2 (IL-1RA acceptor) of the same substance?
Answer: 0.0515 nM

Question: What about the IC50, NF-κB reporter gene luciferase assay with IL-1β; run 3 (IL-1RA acceptor) of the same substance?
Answer: 0.0466 nM

Question: And the IC50, NF-κB reporter gene luciferase assay with IL-1β; run 4 (IL-1RA acceptor)?
Answer: 0.0519 nM
